Assays:
platelets = experiment: Platelet aggregation in platelet-rich plasma from volunteers; type: cell-based, human; conditions: alanine replacement mutant
Description: After obtaining informed consent from volunteers, blood was collected via plastic tubing using acid citrate-dextrose (38 mM citric acid; 75 mM sodium citrate; 135 mM glucose) as anticoagulant. Where indicated, volunteers had ingested 650 mg acetylsalicylic acid (ASA) 18 h prior to blood donation. Platelet-rich plasma (PRP) was prepared with an initial whole blood centrifugation (200 g, 15 min, 25° C.), and a second centrifugation of the PRP (90 g, 10 min) to eliminate residual erythrocytes and leukocytes. The stock suspension of PRP was maintained at room temperature under 5% CO2-air.
Total volumes were adjusted to 300 μl with TSG buffer (Marcus et al., J. Clin. Invest. 88:1690, 1991; Marcus et al., J. Clin. Invest. 99:1351, 1997). After the 3 min preincubation, platelet agonists (ADP or collagen) were added at the concentrations indicated, and the aggregation response recorded for 4-5 min.

[1] = Enzymatic (ATPase and ADPase) activity of site-directed CD39 mutants; type: biochemical; conditions: alanine replacement in conserved apyrase regions
Description: Mutants were assayed for enzymatic (ATPase and ADPase) and platelet inhibitory (dose-dependent inhibition of platelet aggregation) activities. For one series of mutants, residues within the conserved apyrase regions were replaced with alanine.

[2] = target: T1, N-terminally FLAG-tagged soluble human CD39 secreted from COS-1 cells transfected with pIL2LFlagSolCD39 (human, UniProt P49961 38-476); experiment: immunoaffinity depletion of COS-1 conditioned medium with conjugated Affigel beads, ATPase activity left in the supernatant
T1 construct: The cleavage site of the leader was not determined for the FLAG-tagged form; In conditioned medium, about 66 kD, glycosylated; also called pIL2LFlagSolCD39 product; tagged soluble CD39
T1 sequence: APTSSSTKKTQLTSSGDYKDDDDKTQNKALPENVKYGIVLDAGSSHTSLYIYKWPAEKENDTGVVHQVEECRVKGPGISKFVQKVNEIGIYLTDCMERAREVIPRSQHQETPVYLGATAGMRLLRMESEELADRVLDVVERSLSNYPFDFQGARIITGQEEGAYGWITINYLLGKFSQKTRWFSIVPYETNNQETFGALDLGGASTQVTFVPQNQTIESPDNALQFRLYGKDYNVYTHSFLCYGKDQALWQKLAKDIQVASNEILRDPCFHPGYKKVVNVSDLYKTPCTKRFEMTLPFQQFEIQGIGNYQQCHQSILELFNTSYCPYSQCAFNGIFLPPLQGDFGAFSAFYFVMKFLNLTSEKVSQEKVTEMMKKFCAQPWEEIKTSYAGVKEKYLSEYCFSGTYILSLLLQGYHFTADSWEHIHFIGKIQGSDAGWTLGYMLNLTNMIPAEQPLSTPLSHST
Description: CM was collected from COS-1 cells transfected with pIL2LFlagSolCD39, which had been cultured for 5 days in DMEM/F12 supplemented with 5% FCS. A 100 μl aliquot of drained Affigel beads (AG) conjugated with either chicken ovalbumin, antiFLAG mAb, or anti-CD39 mAb was added per ml of CM. […] Each cycle involved continuous gentle agitation of the slurry for 14 h at 4° C. followed by centrifugation to recover supernatants for a subsequent binding cycle or for ATPDase activity measurements.

[3] = Phosphate release assay for ATPase activity; type: biochemical; conditions: for CPM × 10^3 (net counts), ATPase activity in CM: 5 days (Table 3)
Description: This example describes an ATPase assay that may be used to track enzyme activity. Samples (approximately 100 μl of either concentrated CM or purified polypeptide) are combined with 20 μl of 10X assay buffer (200 mM HEPES, 1.2 M NaCl, 50 mM KCl, 15 mM CaCl2, 15 mM MgCl2 and 3 mM ATP) and sterile water is added to a final volume of 200 μl. Radiolabeled ATP (0.8 μCi γ [^32P] ATP; Amersham, Arlington Heights, Ill.) is added and the mixture incubated for 20 minutes at 37° C. Stop mix (0.5 ml of 20% activated charcoal/1 M HCl) is added and the reaction is placed on ice for 10 minutes. After centrifugation (14K rpm for 10 minutes), the supernatant is assayed for free ^32P using a scintillation counter. Data are expressed as raw counts or net counts, or as picomoles of ATP degraded per minute.
The transfections were repeated and the CM (10, 20 and 30 μL, unconcentrated) was assayed essentially as described in Example 7. […] ATPase levels in CM from COS-1 cells transfected with pIL2LFlagSolCD39 increased with time in culture over at least 4 days post-transfection.
To determine whether activity was affected by removal of the N-terminal FLAG® tag, COS-1 cells were transfected with pIL2LFlagSolCD39 and pIL2LSolCD39 and supernatants (sups) were harvested after 5 days. Samples of 10, 20 and 30 μL of 1x sups were assayed for ATPase activity as described in Example 7.
The expression of Trim1 and Trim2 constructs was analyzed in COS-1 cells cultured in 10 cm plates. After 5 days of incubation, 1x supernatants were examined via ELISA (using anti-CD39) and the phosphate-release assay described in Example 7. […] Expression levels, however, appeared to be reduced 3-4 fold.

[4] = Phosphate release assay for ATPase activity; type: biochemical; conditions: 100 μL of 10-fold concentrated CM from COS-1 transfectants; 10X buffer with 30 mM cold ATP

B1: E174A mutant: CD39 mutant, Glutamate 174 replaced with alanine (protein, UniProt P49961 1-510, looked up, variant E174A)
Ectonucleoside triphosphate …: MEDTKESNVKTFCSKNILAILGFSSIIAVIALLAVGLTQNKALPENVKYGIVLDAGSSHTSLYIYKWPAEKENDTGVVHQVEECRVKGPGISKFVQKVNEIGIYLTDCMERAREVIPRSQHQETPVYLGATAGMRLLRMESEELADRVLDVVERSLSNYPFDFQGARIITGQEAGAYGWITINYLLGKFSQKTRWFSIVPYETNNQETFGALDLGGASTQVTFVPQNQTIESPDNALQFRLYGKDYNVYTHSFLCYGKDQALWQKLAKDIQVASNEILRDPCFHPGYKKVVNVSDLYKTPCTKRFEMTLPFQQFEIQGIGNYQQCHQSILELFNTSYCPYSQCAFNGIFLPPLQGDFGAFSAFYFVMKFLNLTSEKVSQEKVTEMMKKFCAQPWEEIKTSYAGVKEKYLSEYCFSGTYILSLLLQGYHFTADSWEHIHFIGKIQGSDAGWTLGYMLNLTNMIPAEQPLSTPLSHSTYVFLMVLFSLVLFTVAIIGLLIFHKPSYFWKDMV
effect on platelet responsiveness (platelets): no effect on platelet responsiveness
enzymatic activity of mutant [1]: completely devoid of enzymatic activity

B2: chicken ovalbumin conjugated to Affigel beads (other, UniProt P01012 2-386, looked up)
chain: GSIGAASMEFCFDVFKELKVHHANENIFYCPIAIMSALAMVYLGAKDSTRTQINKVVRFDKLPGFGDSIEAQCGTSVNVHSSLRDILNQITKPNDVYSFSLASRLYAEERYPILPEYLQCVKELYRGGLEPINFQTAADQARELINSWVESQTNGIIRNVLQPSSVDSQTAMVLVNAIVFKGLWEKAFKDEDTQAMPFRVTEQESKPVQMMYQIGLFRVASMASEKMKILELPFASGTMSMLVLLPDEVSGLEQLESIINFEKLTEWTSSNVMEERKIKVYLPRMKMEEKYNLTSVLMAMGITDVFSSSANLSGISSAESLKISQAVHAAHAEINEAGREVVGSAEAGVDAASVSEEFRADHPFLFCIKHIATNAVLFFGRCVSP
notes: Control beads; also called ovalbumin-conjugated AG; ovalbumin-conjugated beads
binding result [2]: no binding

B3: pIL2LFlagSolCD39: N-terminally FLAG-tagged solCD39 with human proinsulin/IL2 leader and 12 mature IL2 residues (SEQ ID NO:25); COS-1 CM (protein)
chain: MALWIDRMQLLSCIALSLALVTNSAPTSSSTKKTQLTSSGDYKDDDDKTQNKALPENVKYGIVLDAGSSHTSLYIYKWPAEKENDTGVVHQVEECRVKGPGISKFVQKVNEIGIYLTDCMERAREVIPRSQHQETPVYLGATAGMRLLRMESEELADRVLDVVERSLSNYPFDFQGARIITGQEEGAYGWITINYLLGKFSQKTRWFSIVPYETNNQETFGALDLGGASTQVTFVPQNQTIESPDNALQFRLYGKDYNVYTHSFLCYGKDQALWQKLAKDIQVASNEILRDPCFHPGYKKVVNVSDLYKTPCTKRFEMTLPFQQFEIQGIGNYQQCHQSILELFNTSYCPYSQCAFNGIFLPPLQGDFGAFSAFYFVMKFLNLTSEKVSQEKVTEMMKKFCAQPWEEIKTSYAGVKEKYLSEYCFSGTYILSLLLQGYHFTADSWEHIHFIGKIQGSDAGWTLGYMLNLTNMIPAEQPLSTPLSHST
modifications: CDS (1)..(1461)
notes: COS-1 CM
CPM × 10^3 (net counts), ATPase activity in CM ([3]; 10 μL 1x COS-1 supernatant): 23.6 CPM × 10^3
CPM Release × 10^3 (net counts), ATPase activity in CM ([3]; 10 μL unconcentrated COS-1 CM): 24.71 CPM × 10^3
CPM × 10^3 (net counts), ATPase activity in CM ([3]; 20 μL 1x COS-1 supernatant): 40.2 CPM × 10^3
CPM Release × 10^3 (net counts), ATPase activity in CM ([3]; 20 μL unconcentrated COS-1 CM): 43.92 CPM × 10^3
CPM × 10^3 (net counts), ATPase activity in CM ([3]; 30 μL 1x COS-1 supernatant): 54.4 CPM × 10^3
CPM Release × 10^3 (net counts), ATPase activity in CM ([3]; 30 μL unconcentrated COS-1 CM): 56.93 CPM × 10^3
CPM Release × 10^3 (raw counts), ATPase activity in concentrated CM [4]: 99.96 CPM × 10^3

Reference: patent publication US20020002277A1, “Inhibitors of platelet activation and recruitment” (priority 1998, published 2002)
